Patent US12448423 (Xencor, dated 2025)
Where a chain is given by its changes, count along the chain named.

Experiments:
[1] = biological target: T1, cynomolgus CD8 (captured on the Octet biosensor) (cynomolgus); experiment: method not stated in the sentence (Octet in the same example)
T1 construct: Construct not described; also called cyno CD8; cyno CD8a

[2] = biological target: T2, human CD8 (captured on the Octet biosensor) (human, UniProt P01732 22-182, limits assumed); experiment: Octet (BLI); human CD8 captured, dipped into multiple concentrations of the one-arm mAb
T2 construct: Construct not described; also called recombinant human CD8a

[3] = biological target: T1, cynomolgus CD8 (captured on the Octet …); experiment: Octet (BLI); cynomolgus CD8 captured, dipped into multiple concentrations of the one-arm mAb
[4] = biological target: T3, NKG2D (affinity ladder and epitope binning; construct not stated) (UniProt P26718 73-216, limits assumed); experiment: affinity ladder; method and format not stated
T3 sequence (looked up): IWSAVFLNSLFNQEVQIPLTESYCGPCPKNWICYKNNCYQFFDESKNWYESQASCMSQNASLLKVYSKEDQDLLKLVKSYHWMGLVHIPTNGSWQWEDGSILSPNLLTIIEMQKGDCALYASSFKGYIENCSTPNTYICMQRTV

[5] = biological target: T4, XENP27197 (human, UniProt P0DOX7 1-214); experiment: Octet (BLI): HIS-tagged human NKG2D captured on HIS1K biosensors, dipped into multiple concentrations of the fusion; global fit, 1:1 Langmuir model
T4 construct: scIL-15/Rα x Fab format; also called NKG2D-targeted IL-15/Rα-Fc fusion based on 1D7B4 and IL-15(N4D/N65D) variant

[6] = biological target: T5, XENP27145 (human); experiment: as above
T5 construct: also called NKG2D-targeted IL-15(N4D/N65D)/Rα-Fc fusion with targeting arm based on MS

T2 sequence (P01732 22-182 limits assumed): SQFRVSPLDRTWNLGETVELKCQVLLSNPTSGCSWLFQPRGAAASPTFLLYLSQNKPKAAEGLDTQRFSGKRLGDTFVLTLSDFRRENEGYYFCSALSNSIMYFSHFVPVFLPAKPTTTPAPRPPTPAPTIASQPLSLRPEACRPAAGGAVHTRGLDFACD

B1: humanized OKT8 variant (H2L1) (antibody)
heavy: QVQLVQSGAEVKKPGASVKVSCKASGFNIKDTYIHWVRQAPGKGLEWMGRIDPANDNTLYASKFQGRVTITADTSINTAYMELSRLRSDDTAVYYCGRGYGYYVFDHWGQGTTVTVSSASTKGPSVFPLAPSSKSTSGGTAALGCLVKDYFPEPVTVSWNSGALTSGVHTFPAVLQSSGLYSLSSVVTVPSSSLGTQTYICNVNHKPSNTKVDKKVEPKSCDKTHTCPPCPAPPVAGPSVFLFPPKPKDTLMISRTPEVTCVVVDVKHEDPEVKFNWYVDGVEVHNAKTKPREEQYNSTYRVVSVLTVLHQDWLNGKEYKCKVSNKALPAPIEKTISKAKGQPREPQVYTLPPSREQMTKNQVKLTCLVKGFYPSDIAVEWESNGQPENNYKTTPPVLDSDGSFFLYSKLTVDKSRWQQGNVFSCSVMHEALHNHYTQKSLSLSPGK
light: DIKMTQSPSSLSASVGDRVTITCRTSRSISQYLAWYQEKPGKTNKLLIYSGSTLQSGIPSRFSGSGSGTDFTLTISSLQPEDFATYYCQQHNENPLTFGAGTKLEIKRTVAAPSVFIFPPSDEQLKSGTASVVCLLNNFYPREAKVQWKVDNALQSGNSQESVTEQDSKDSTYSLSSTLTLSKADYEKHKVYACEVTHQGLSSPVTKSFNRGEC
Fc: EPKSSDKTHTCPPCPAPPVAGPSVFLFPPKPKDTLMISRTPEVTCVVVDVKHEDPEVKFNWYVDGVEVHNAKTKPREEEYNSTYRVVSVLTVLHQDWLNGKEYKCKVSNKALPAPIEKTISKAKGQPREPQVYTLPPSREEMTKNQVSLTCDVSGFYPSDIAVEWESDGQPENNYKTTPPVLDSDGSFFLYSKLTVDKSRWEQGDVFSCSVMHEALHNHYTQKSLSLSPGK
notes: also called OKT8_H2L1
- Kd [1]: 0.2 µM
- Kd [2]: 0.012 µM
- koff [2]: 0.006 s⁻¹
- kon [2]: 500000 M⁻¹ s⁻¹
- Kd [3]: 0.202 µM
- koff [3]: 0.0699 s⁻¹
- kon [3]: 347000 M⁻¹ s⁻¹

B2: KYK-1.0 (anti-NKG2D antigen binding domain) (antibody, V domains shown)
VH: EVQLVESGGGVVQPGGSLRLSCAASGFTFSSYGMHWVRQAPGKGLEWVAFIRYDGSNKYYADSVKGRFTISRDNSKNTKYLQMNSLRAEDTAVYYCAKDRFGYYLDYWGQGTLVTVSS
VL: QPVLTQPSSVSVAPGETARIPCGGDDIETKSVHWYQQKPGQAPVLVIYDDDDRPSGIPERFFGSNSGNTATLSISRVEAGDEADYYCQVWDDNNDEWVFGGGTQLTVL
notes: also called KYK-1.0[NKG2D]_H1L1
- Kd [4]: 0.17 µM

B3: XENP26009 (antibody, V domains shown)
VH: QVQLVQSGAEVKKPGASVKVSCKASGFNIKDTYIHWVRQAPGKGLEWMGRIDPDNGETLYASKFQGRVTITADTSINTAYMELSRLRSDDTAVYYCGRGYGYYVFDHWGQGTTVTVSS
VL: AIKMTQSPSSLSASVGDRVTITCRTSRSISKYLAWYQEKPGKTNKLLIYSGSTLQSGIPSRFSGSGSGTDFTLTISSLQPEDFATYYCQQHNENPLTFGAGTKLEIK
notes: also called OKT8_H2.152_L1.103 one-arm mAb
- Kd [3]: 0.0776 µM
- koff [3]: 0.00909 s⁻¹
- kon [3]: 117000 M⁻¹ s⁻¹

B4: XENP26236 (antibody, V domains shown)
VH: B3 VH with I70M, Y100W
VL: B3 VL
notes: also called OKT8_H2.159_L1.103 one-arm mAb
- Kd [3]: 0.0551 µM
- koff [3]: 0.00672 s⁻¹
- kon [3]: 122000 M⁻¹ s⁻¹

B5: XENP26241 (antibody, V domains shown)
VH: B3 VH with G56D, I70M, Y102K
VL: B3 VL
notes: also called OKT8_H2.164_L1.103 one-arm mAb
- Kd [2]: 0.0556 µM
- koff [2]: 0.0148 s⁻¹
- kon [2]: 265000 M⁻¹ s⁻¹
- Kd [3]: 0.067 µM
- koff [3]: 0.00589 s⁻¹
- kon [3]: 88000 M⁻¹ s⁻¹

B6: XENP26230 (antibody, V domains shown)
VH: B3 VH with I70M
VL: B3 VL
notes: also called OKT8_H2.153_L1.103 one-arm mAb
- Kd [3]: 0.0392 µM
- koff [3]: 0.00967 s⁻¹
- kon [3]: 247000 M⁻¹ s⁻¹

B7: XENP26233 (antibody, V domains shown)
VH: B3 VH with Y100W
VL: B3 VL
notes: also called OKT8_H2.156_L1.103 one-arm mAb
- Kd [3]: 0.0666 µM
- koff [3]: 0.0133 s⁻¹
- kon [3]: 200000 M⁻¹ s⁻¹

B8: XENP26240 (antibody, V domains shown)
VH: B3 VH with G56D, Y100W
VL: B3 VL
notes: also called OKT8_H2.163_L1.103 one-arm mAb
- Kd [3]: 0.0754 µM
- koff [3]: 0.0225 s⁻¹
- kon [3]: 298000 M⁻¹ s⁻¹

B9: XENP26239 (antibody, V domains shown)
VH: B3 VH with G56D, V104Y
VL: B3 VL
notes: also called OKT8_H2.162_L1.103 one-arm mAb
- Kd [3]: 0.0666 µM
- koff [3]: 0.00882 s⁻¹
- kon [3]: 133000 M⁻¹ s⁻¹

B10: XENP26234 (antibody, V domains shown)
VH: B3 VH with I70M, Y102K
VL: B3 VL
notes: also called OKT8_H2.157_L1.103 one-arm mAb
- Kd [2]: 0.0482 µM
- koff [2]: 0.0124 s⁻¹
- kon [2]: 258000 M⁻¹ s⁻¹
- Kd [3]: 0.0556 µM
- koff [3]: 0.00448 s⁻¹
- kon [3]: 80600 M⁻¹ s⁻¹

B11: XENP26237 (antibody, V domains shown)
VH: B3 VH with G56D, I70M
VL: B3 VL
notes: also called OKT8_H2.160_L1.103 one-arm mAb
- Kd [3]: 0.0674 µM
- koff [3]: 0.00767 s⁻¹
- kon [3]: 114000 M⁻¹ s⁻¹

B12: XENP26232 (antibody, V domains shown)
VH: B3 VH with V104Y
VL: B3 VL
notes: also called OKT8_H2.155_L1.103 one-arm mAb
- Kd [3]: 0.0357 µM
- koff [3]: 0.0114 s⁻¹
- kon [3]: 319000 M⁻¹ s⁻¹

B13: XENP26019 (antibody, V domains shown)
VH: B3 VH
VL: B3 VL with K31I, S50K, H91A
notes: also called OKT8_H2.152_L1.113 one-arm mAb
- Kd [3]: 0.0807 µM
- koff [3]: 0.00962 s⁻¹
- kon [3]: 119000 M⁻¹ s⁻¹

B14: XENP26231 (antibody, V domains shown)
VH: B3 VH with Y102K
VL: B3 VL
notes: also called OKT8_H2.154_L1.103 one-arm mAb
- Kd [2]: 0.0955 µM
- koff [2]: 0.0226 s⁻¹
- kon [2]: 236000 M⁻¹ s⁻¹
- Kd [3]: 0.0959 µM
- koff [3]: 0.00887 s⁻¹
- kon [3]: 92500 M⁻¹ s⁻¹

B15: XENP26235 (antibody, V domains shown)
VH: B3 VH with I70M, V104Y
VL: B3 VL
notes: also called OKT8_H2.158_L1.103 one-arm mAb
- Kd [2]: 0.00138 µM
- koff [2]: 0.000992 s⁻¹
- kon [2]: 718000 M⁻¹ s⁻¹
- Kd [3]: 0.0335 µM
- koff [3]: 0.00477 s⁻¹
- kon [3]: 143000 M⁻¹ s⁻¹

B16: XENP26238 (antibody, V domains shown)
VH: B3 VH with G56D, Y102K
VL: B3 VL
notes: also called OKT8_H2.161_L1.103 one-arm mAb
- Kd [2]: 0.0966 µM
- koff [2]: 0.0262 s⁻¹
- kon [2]: 271000 M⁻¹ s⁻¹
- Kd [3]: 0.107 µM
- koff [3]: 0.00894 s⁻¹
- kon [3]: 83900 M⁻¹ s⁻¹

B17: XENP26243 (antibody, V domains shown)
VH: B3 VH with G56D, I70M, Y100W
VL: B3 VL
notes: also called OKT8_H2.166_L1.103 one-arm mAb
- Kd [2]: 0.00314 µM
- koff [2]: 0.00196 s⁻¹
- kon [2]: 626000 M⁻¹ s⁻¹
- Kd [3]: 0.0559 µM
- koff [3]: 0.0108 s⁻¹
- kon [3]: 192000 M⁻¹ s⁻¹

B18: XENP26242 (antibody, V domains shown)
VH: B3 VH with G56D, I70M, V104Y
VL: B3 VL
notes: also called OKT8_H2.165_L1.103 one-arm mAb
- Kd [3]: 0.03 µM
- koff [3]: 0.00968 s⁻¹
- kon [3]: 322000 M⁻¹ s⁻¹

B19: HIS-tagged human NKG2D (receptor, UniProt P26718 73-216, looked up)
chain: T3 sequence (looked up)
notes: Captured on HIS1K biosensors; not shown: HIS tag
- Kd [5]: 0.00866 µM
- koff [5]: 0.00325 s⁻¹
- kon [5]: 375000 M⁻¹ s⁻¹
- Kd [6]: 0.00245 µM
- koff [6]: 0.00123 s⁻¹
- kon [6]: 502000 M⁻¹ s⁻¹
